Data published in article doi:10.1101/2022.09.06.506802 (bioRxiv, 2022).
Where “and” joins values, the source holds several entries; their conditions need not be identical. Identical values can stand only once.

Key:
[1] = biological target: Human Talin 1 R1R2-17b (residues 482-786 + additional 17 residues) (human) (UniProt Q9Y490); test: SEC
[2] = biological target: Human Talin 1 R1R2-WT (residues 482-786) (human, UniProt Q9Y490 482-786); test: NMR titration

| Molecule | stoichiometry N (vinculin per talin) [1] | binding result [2] |
| --- | --- | --- |
| Vinculin domain 1 (VD1) (from UniProt P18206 1-258) (domain or fragment) | 2 and 3 | – |
| SEDIDQMFSTLLGEMDLLTQSLGVDTC [RIAM peptide (residues 4-30)] | – | binds |
